Experimental data reported in patent publication US20110195494A1 (Boehringer Ingelheim, published 2011).

B1: DLLBII8A09 (VHH)
VHH: EVQLVESGGGLVQPGGSLRLSCAASGFTLDYYNIGWFRQAPGKEREWVSCINSSDGSTYYADSVKGRFTISRDNAKNTVYLQMNSLKPEDTAVYYCAAPFAYYSNLCGVNGYDYWGQGTQVTVSS
notes: also called DLLBII08A09; not shown: C-terminal c-myc tag and His6 tag
B2: DLLBII5B11 (VHH)
VHH: EVQLVESGGGLVQPGGSLRLSCAISGFTLDLHVIGWLRQAPGKEREWVSCISSSDGSTYYADSVKGRFTISRDNAKNTVYLQMNSLKPEDTAVYYCAAPWDSWYCGIGNDYDYWGQGTQVTVSS
notes: also called DLLBII05B11; not shown: C-terminal c-myc tag and His6 tag
B3: DLLBII7B05 (VHH)
VHH: EVQLVESGGGLVQAGGSLRLSCAASGFALDYYAVGWFRQAPGKEREGVSCISSRGGSTFYADSVKGRFTTSRNNAKNTVYLQMNSLKPEDTAVYYCAAHPLQNCCGGSAYASPEAVYEYWGQGTQVTVSS
notes: also called DLLBII07B05; DLLBII7B5; not shown: C-terminal c-myc tag and His6 tag
B4: DLLBII6B11 (VHH)
VHH: EVQLVESEGGLVQAGGSLRLSCAASGSTFSSYAMGWYRQAPGKQRELVAVISNGGITNYPNSVKGRFTISRDNAKNTVYLQMNSLKPEDTAVYYCFYSGSYYYPTDVHEYDYWGQGTQVTVSS
notes: also called DLLBII06B11; not shown: C-terminal c-myc tag and His6 tag
B5: DLLBII8C11 (VHH)
VHH: EVQLVESGGGLVQAGGSLRLSCAASGFTFDDYAIGWFRQAPGKEREGVSCISSHDRTTYYADSVKGRFTISSDNAKNTVYLQMNSLKPEDTAVYYCAADPLVCGYNDPRLADYWGQGTQVTVSS
notes: also called DLLBII08C11; not shown: C-terminal c-myc tag and His6 tag
B6: DLLBII19D10 (VHH)
VHH: EVQLVESGGGLVQAGDSLRLSCAASGRTVGSYDMSWVRQGPGKEREWVSSINSGVGKTYYADSVKGRFTIFRDNAKNMVYLQMNNLKPEDTAVYYCATEMDGSRYVEGQGTQVTVSS
notes: tested as periplasmic extract; not shown: C-terminal c-myc tag and His6 tag
B7: DLLBII33C05 (VHH)
VHH: EVQLVESGGGLVQAGGSLRLSCAASGFTLDNYVIGWFRQAPGKEREEVSCISSSGGSTDYLDSVKGRFTISRDNAKNTVYLQMNSLKPEDTAVYYCAADSLPCYYDKMVYDYWGQGTQVTVSS
notes: tested as periplasmic extract; also called DLLBII33C5; not shown: C-terminal c-myc tag and His6 tag
B8: DLLBII28B06 (VHH)
VHH: EVQLVESGGGLVQAGGSLRLSCAASGSTFSTYAMGWYRQDPGNQRELVAAISSDGSTHYADSVKGRFTISRDNAKNTVYLQMNSLKPEDTAVYYCYAPVKVAGLEYDYWGQGTQVTVSS
notes: tested as periplasmic extract; also called DLLBII28B6; not shown: C-terminal c-myc tag and His6 tag
B9: DLLBII17G10 (VHH)
VHH: EVQLVESGGGLVQAGGSLRLSCAASGSTFSSYAMGWYRHQAPGKQRELVAAISSDGSTHYADSVKGRFTISRDNAKNTMYLQMNSLKPEDTAVYYCNTKTFGSNWYDDYWGQGTQVTVSS
notes: as for B6
B10: DLLBII17C01 (VHH)
VHH: EVQLVESGGGLVQAGGSLRLSCAASGFTFDDYPIGWLRQAPGKEREGVSCISSSDDSTYYADSVKGRFTISSNNAKNTVYLQMNSLKPEDTAVYYCAVRLFSGGCAVVAGTSWADFGSSGQGTQVTVSS
notes: tested as periplasmic extract; also called DLLBII17C1; not shown: C-terminal c-myc tag and His6 tag
B11: DLLBII19F04 (VHH)
VHH: EVQLVESGGGLVQAEGSLRLSCAASGSTFSTYAMAWYRQAPGKQRELVAGISFDGSTHYAESVKGRFTISRDDAKNTVSLQMNSLKPEDAAVYYCYSVHPSTGFGSWGQGTQVTVSS
notes: also called DLLBII19F4; not shown: C-terminal c-myc tag and His6 tag
B12: DLLBII17F10 (VHH)
VHH: EVQLVESGGGLVQAGGSLRLSCASSGRTLLNYAMGWFRQAPGKEREFVSGINWSGGSTYYADSVKGRFTISRDNAENTVYLHMNSLKPEDTAVYYCAAAHDNYWFTDDSLGRGLKYWGQGTQVTVSS
notes: not shown: C-terminal c-myc tag and His6 tag
B13: DLLBII17B03 (VHH)
VHH: EVQLVESGGGLVQPGGSLRLSCAASGFTFENYALGWFRQAPGKEREWVSCISSSDGTTYYADSVKGRFTISRDNVKNTVYLQMNRLKPEDTAIYYCALSLGSSWCAYDYWGQGTQVTVSS
notes: tested as periplasmic extract; also called DLLBII17B3; not shown: C-terminal c-myc tag and His6 tag
B14: DLLBII19F12 (VHH)
VHH: EVQLVESGGGLVQAGGSLRLSCTASGSTFTSYAMGWYRQAPGKQRELVAAISSDDSTYYADCVKGRFTISRDNAKNTVYLQMNSLKPEDTAVYYCNAPHSDYDEEAPSDFGSWGQGTQVTVSS
notes: as for B6
B15: DLLBII112A04 (VHH)
VHH: EVQLVESGGGLVQAGGSLRLSCAAFGRTPYGMGWFRQAPGKEREFVAAITSDGSTNYADSVKGRFTISRDNAKNAVSLQMNSLKPEDTAVYYCTAPYYSDFEGTTTEYDYWGQGTQVTVSS
notes: tested as periplasmic extract; also called DLLBII112A4; not shown: C-terminal c-myc tag and His6 tag
B16: DLLBII101H09 (VHH)
VHH: EVQLVESGGGLVQPGGSLRLSCAASGFTLGYYTIVWFRQAPGKERKGVSCISSRDGSRYYADSVKGRFTISRDNAKNTVYLRMNSLKPEDTAVYYCAAGPDCSSYDYWGQGTQVTVSS
notes: tested as periplasmic extract; also called DLLBII101H9; not shown: C-terminal c-myc tag and His6 tag
B17: DLLBII112E07 (VHH)
VHH: EVQLVESGGGLVQAGGSLRLSCAASGRTVRSYATGWFRQAPGKEREFVAALRWSIGSIASVYYDDSVKGRFTISGDNAENTVYLQMNALKPEDTAIYYCASTTRGRYSALSASAYDYWGQGTQVTVSS
notes: tested as periplasmic extract; also called DLLBII112E7; not shown: C-terminal c-myc tag and His6 tag
B18: DLLBII101F01 (VHH)
VHH: EVQLVESGGGLVQAGGSLRLSCAASGRTFSNYAMGWFRQAPGKEREFVAAISWSGGDTYYADSVKGRFTISRDNAKNTVCLQMNSLKPEDTAVYYCAASFQSGAAPGANFYDYWGQGTQVTVSS
notes: tested as periplasmic extract; also called DLLBII101F1; not shown: C-terminal c-myc tag and His6 tag
B19: DLLBII104A03 (VHH)
VHH: EVQLVESGGGLVQAGGSLRLSCAASGDIPRIAAMGWYRQAPGKQRELVATVSNAATTRYADSAKGRFTISRDNAKTVSLQMDNLKPEDTGVYYCYSLATTVTPSWVNYWGQGTQVTVSS
notes: tested as periplasmic extract; also called DLLBII104A3; not shown: C-terminal c-myc tag and His6 tag
B20: DLLBII104C04 (VHH)
VHH: EVQLVESGGGLVQAGGSLRLSCAAAGSTFSSYVMGWYRQAPGKQRELVAHISTRGITYYADSVKGRFTISRDNAKNTMYLQMNSLKPEDTAVYYCNTRRNFLSNYWGQGTQVTVSS
notes: tested as periplasmic extract; also called DLLBII104C4; not shown: C-terminal c-myc tag and His6 tag
B21: DLLBII104B05 (VHH)
VHH: EVQLVESGGGSVQAGGSLRLSCAASGSISRIDVMAWYRQAPGKERELVASISSGGSTNYADSVKGRFTISREYFKNMMYLQMNSLKFEDTAVYYCNADSRRGGVGNFFRSWGQGTQVTVSS
notes: tested as periplasmic extract; also called DLLBII104B5; not shown: C-terminal c-myc tag and His6 tag
B22: DLLBII107C03 (VHH)
VHH: EVQLVESGGGLVQPGGSLRLSCEVSGSIGSVSDMRWYRQAPGLQYELVARITSGSITDYSDSVKGRFTISRDNAKNTVYLQMNSLKPEDTAVYYCNADVQHSAWLKPLTYWGQGTQVTVSS
notes: tested as periplasmic extract; also called DLLBII107C3; not shown: C-terminal c-myc tag and His6 tag

Assays:
[1] = target: T1, recombinant human DLL4, C-terminally His-tagged extracellular domain (R&D Systems) (human, UniProt Q9NR61 25-522, biotinylated where used in competition ELISA, AlphaScreen and on SA chips); experiment: competition ELISA, periplasmic extract
T1 construct: also called rhDLL4; hDLL4; not shown: C-terminal His tag
T1 sequence (Q9NR61 25-522): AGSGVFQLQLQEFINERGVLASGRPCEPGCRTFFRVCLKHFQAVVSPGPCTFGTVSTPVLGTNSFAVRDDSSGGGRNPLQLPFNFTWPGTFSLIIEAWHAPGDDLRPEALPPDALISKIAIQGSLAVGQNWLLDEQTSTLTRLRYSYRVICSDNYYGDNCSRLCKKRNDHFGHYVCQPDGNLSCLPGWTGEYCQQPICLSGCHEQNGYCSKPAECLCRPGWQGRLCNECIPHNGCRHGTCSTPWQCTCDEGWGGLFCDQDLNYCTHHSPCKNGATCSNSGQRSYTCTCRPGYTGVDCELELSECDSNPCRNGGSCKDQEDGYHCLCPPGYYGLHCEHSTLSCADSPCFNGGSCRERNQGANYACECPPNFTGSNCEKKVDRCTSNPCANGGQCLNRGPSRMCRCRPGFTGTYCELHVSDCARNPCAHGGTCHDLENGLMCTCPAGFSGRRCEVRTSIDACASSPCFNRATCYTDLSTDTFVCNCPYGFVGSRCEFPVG

[2] = target: T1, recombinant human DLL4, C-terminally …; experiment: hDLL4/hNotch1-Fc AlphaScreen, periplasmic extract
Method: Periplasmic extracts are screened in a human DII4/human Notch1 AlphaScreen assay to assess the blocking capacity of the expressed VHHs. Human DII4 is biotinylated using biotin (Sigma, St Louis, Mo., USA) and biotinamidohexanoic acid 3-sulfo-N-hydroxysuccinimide ester sodium salt (Sigma, St Louis, Mo., USA). […] To evaluate the neutralizing capacity of the VHHs, dilution series of the periplasmic extracts are pre-incubated with biotinylated human DII4. To this mixture, the acceptor beads and the streptavidin donor beads are added and further incubated for 1 hour at room temperature. Fluorescence is measured by reading plates on the Envision Multilabel Plate reader (Perkin Elmer, Waltham, Mass., USA) using an excitation wavelength of 680 nm and an emission wavelength of 520 nm.

[3] = target: T2, full length human DLL4 on overexpressing CHO or HEK293 cells (human, UniProt Q9NR61 27-685); experiment: FMAT, hNotch1/Fc on CHO-hDLL4, periplasmic extract
T2 construct: also called CHO-hDLL4; HEK293-hDII4
T2 sequence (Q9NR61 27-685 limits assumed): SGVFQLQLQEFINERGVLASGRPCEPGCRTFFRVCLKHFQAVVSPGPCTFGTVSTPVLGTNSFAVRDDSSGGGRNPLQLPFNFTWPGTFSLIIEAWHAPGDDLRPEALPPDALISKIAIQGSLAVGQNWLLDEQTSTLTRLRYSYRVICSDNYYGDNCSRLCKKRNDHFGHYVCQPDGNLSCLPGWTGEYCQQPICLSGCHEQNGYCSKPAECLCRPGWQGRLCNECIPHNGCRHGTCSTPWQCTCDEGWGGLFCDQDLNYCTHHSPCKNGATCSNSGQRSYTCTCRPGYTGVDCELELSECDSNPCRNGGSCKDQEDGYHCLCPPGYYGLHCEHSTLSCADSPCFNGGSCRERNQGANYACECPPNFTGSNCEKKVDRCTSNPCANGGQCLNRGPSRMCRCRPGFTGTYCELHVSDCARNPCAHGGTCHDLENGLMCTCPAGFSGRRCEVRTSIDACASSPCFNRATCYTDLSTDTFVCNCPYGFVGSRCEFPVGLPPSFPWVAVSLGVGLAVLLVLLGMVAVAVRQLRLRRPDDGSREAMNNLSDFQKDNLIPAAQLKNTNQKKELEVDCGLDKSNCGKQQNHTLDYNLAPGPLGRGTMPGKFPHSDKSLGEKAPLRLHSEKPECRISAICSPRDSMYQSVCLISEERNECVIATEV
Text: (§1) All calculations are based on the FL1 total signal which comprises the average of the fluorescence per well times the number of counts per well.

[4] = target: T3, full length mouse DLL4 on overexpressing CHO or HEK293 cells (mouse, UniProt Q9JI71 27-686); experiment: FMAT, hNotch1/Fc on CHO-mDLL4, periplasmic extract
T3 construct: whole, on cells; also called CHO-mDLL4; mDLL4
T3 sequence (Q9JI71 27-686): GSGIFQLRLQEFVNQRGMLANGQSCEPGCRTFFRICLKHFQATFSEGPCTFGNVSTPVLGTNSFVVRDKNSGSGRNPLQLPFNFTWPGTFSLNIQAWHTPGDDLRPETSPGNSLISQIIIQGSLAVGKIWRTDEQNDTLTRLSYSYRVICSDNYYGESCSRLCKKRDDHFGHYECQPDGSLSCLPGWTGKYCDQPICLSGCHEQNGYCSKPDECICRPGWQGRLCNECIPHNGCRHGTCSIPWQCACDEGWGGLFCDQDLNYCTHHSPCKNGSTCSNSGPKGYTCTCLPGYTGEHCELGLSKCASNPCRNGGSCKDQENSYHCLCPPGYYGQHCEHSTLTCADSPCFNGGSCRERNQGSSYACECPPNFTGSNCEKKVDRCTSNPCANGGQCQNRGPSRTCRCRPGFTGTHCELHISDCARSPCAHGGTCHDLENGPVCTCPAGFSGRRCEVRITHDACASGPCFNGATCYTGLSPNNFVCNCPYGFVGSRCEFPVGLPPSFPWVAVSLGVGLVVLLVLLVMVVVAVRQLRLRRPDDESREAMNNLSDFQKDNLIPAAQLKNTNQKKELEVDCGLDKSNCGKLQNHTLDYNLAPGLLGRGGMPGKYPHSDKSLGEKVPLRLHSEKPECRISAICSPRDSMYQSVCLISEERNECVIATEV
Text: as §1

Binder | ELISA hDLL4 % inhibition [1] [%] | Alpha Screen hDLL4 % inhibition [2] [%] | FMAT hDLL4 % inhibition [3] [%] | FMAT mDLL4 % inhibition [4] [%]
B1 | 96 | – | – | –
B2 | 98 | – | – | –
B3 | 84 | – | – | –
B4 | 98 | – | – | –
B5 | 57 | – | – | –
B6 | 98 | 85 | – | –
B7 | 86 | 75 | – | –
B8 | 23 | 54 | – | –
B9 | 93 | 82 | – | –
B10 | 82 | 84 | – | –
B11 | 98 | 95 | – | –
B12 | 98 | 88 | – | –
B13 | 76 | 77 | – | –
B14 | 98 | 98 | – | –
B15 | – | – | 75 | 90
B16 | – | – | 87 | 75
B17 | – | – | 80 | 85
B18 | – | – | 85 | 78
B19 | – | – | 86 | 83
B20 | – | – | 87 | 83
B21 | – | – | 86 | 78
B22 | – | – | 75 | 80
